Results as given in US20060057144A1 (published 2006).

B1: PsFcγRIIa (recombinant soluble human FcγRIIa protein produced in baculovirus-infected Sf-21 cells) (receptor)
chain: APPKAVLKLEPPWINVLQEDSVTLTCQGARSPESDSIQWFHNGNLIPTHTQPSYRFKANNNDSGEYTCQTGQTSLSDPVHLTVLFEWLVLQTPHLEFQEGETIMLRCHSWKDKPLVKVTFFQNGKSQKFSHLDPTFSIPQANHSHSGDYHCTGNIGYTLFSSKPVTITVQV
notes: Amplified from FcγRIIa LR cDNA; also called PsFc.RIIa; soluble FcγRIIa
B2: acetylated hexapeptide of sequence FQNGKS (Ac-Phe-Gln-Asn-Gly-Lys-Ser-NH2) (peptide)
peptide: Ac-FQNGKS-NH2

Assays:
monomeric human IgG1 [1] = target: T1, monomeric human IgG1 (human); experiment: SPR equilibrium, two site fit, immobilised IgG1; remaining 10% of the sites
T1 construct: Immobilised by amine coupling on a CM5 chip
Description: (§1) About 4000 to about 6000 response units (RU) of monomeric human immunoglobulin subclasses IgG1, IgG2, IgG3, and IgE (50 ug/ml of each) were covalently coupled to separate carboxymethylated dextran surface of each CM5 sensor-chips (available from BIAcore, Uppsala, Sweden) using a amine coupling kit (available from BIAcore), according to manufacturer's methods. […] Following administration of the protein, the immunoglobulin surface was regenerated on each chip using a buffer containing 50 mM diethylamine pH 11.5, and 1 M NaCl. […] Data points obtained from the IgE channels were subtracted to correct for refractive index differences.

monomeric human IgG3 [2] = target: T2, monomeric human IgG3 (human, UniProt P01860-1 1-377); experiment: SPR equilibrium, two site fit, immobilised IgG3; 50% of the sites
T2 construct: Immobilised by amine coupling on a CM5 chip
Description: as §1

monomeric human IgG1 [3] = target: T1, monomeric human IgG1; experiment: SPR equilibrium, two site fit, immobilised IgG1; about 90% of the sites
Description: as §1

monomeric human IgG3 [4] = target: T2, monomeric human IgG3; experiment: SPR equilibrium, two site fit, immobilised IgG3; remaining 50% of the sites
Description: as §1

[5] = target: B1; experiment: SPR; FcγRIIa (50 µg/mL) premixed with a range of hexapeptide concentrations, passed over immobilised IgG3; against no peptide
Description: (§2) At the conclusion of the concentration dependence measurements all surfaces were regenerated using 50 mM diethylamine (pH 11.5), 1 M NaCl. The total response measured for each concentration of peptide was determined and plotted against the peptide concentration. The non-specific binding responses (IgE channel) were subtracted from binding to IgG1 or IgG3.

[6] = target: B1; experiment: SPR; FcγRIIa (50 µg/mL) premixed with a range of hexapeptide concentrations, passed over immobilised IgG1; against no peptide
Description: as §2

T2 sequence (P01860 other isoform, or with tags, fused parts or gaps): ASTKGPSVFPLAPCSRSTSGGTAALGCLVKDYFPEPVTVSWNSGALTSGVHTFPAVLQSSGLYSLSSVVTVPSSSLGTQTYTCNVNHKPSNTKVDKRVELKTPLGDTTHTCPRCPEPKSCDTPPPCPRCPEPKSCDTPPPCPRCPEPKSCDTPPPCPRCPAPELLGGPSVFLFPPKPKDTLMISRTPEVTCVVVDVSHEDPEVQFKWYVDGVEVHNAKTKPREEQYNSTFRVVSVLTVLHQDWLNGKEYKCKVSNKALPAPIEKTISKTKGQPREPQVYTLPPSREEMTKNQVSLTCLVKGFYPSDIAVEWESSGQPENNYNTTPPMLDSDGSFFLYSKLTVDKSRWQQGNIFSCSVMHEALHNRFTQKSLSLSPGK

| Binder | Ka (monomeric human IgG1 [1]) | Ka (monomeric human IgG3 [2]) | Ka (monomeric human IgG1 [3]) | Ka (monomeric human IgG3 [4]) | fold enhancement of FcγRIIa binding to IgG3 [5] | fold enhancement of FcγRIIa binding to IgG1 [6] |
| --- | --- | --- | --- | --- | --- | --- |
| B1 | ~23000 M⁻¹ | ~2.7e+06 M⁻¹ | ~2.1e+06 M⁻¹ | ~12000 M⁻¹ |  |  |
| B2 |  |  |  |  | 1.6 fold | 4 fold |
